According to patent publication WO2014051109A1 (dated 2014):

What was measured:
[1] = molecular target: human BMP9 recombinant protein (prepared by the method of Example 12 of WO2010/126169; N-terminal His-type hBMP9 complex, vector pLN1V5_hBMP9) (human) (UniProt Q9UK05); test: SPR (BIAcore 2000), antibody captured by anti-mouse IgG on CM5, human BMP9 as analyte, single cycle kinetics
[2] = molecular target: T1, human mature dimer BMP9 recombinant protein (R&D Systems, Cat#3209-BP) (human, UniProt Q9UK05 320-429); test: cell-based or functional assay
T1 sequence: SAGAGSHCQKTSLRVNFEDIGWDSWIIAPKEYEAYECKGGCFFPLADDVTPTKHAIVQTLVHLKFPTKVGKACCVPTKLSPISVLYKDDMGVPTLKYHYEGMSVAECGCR

[3] = molecular target: T2, human BMP9 recombinant protein (prepared by the method of Example 12 of WO2010/126169); N-terminal His-type … (human, UniProt Q9UK05 23-319; Q9UK05 320-429); test: SPR (BIAcore 2000), ratio of Kd values against the R&D antibody
T2 construct: not shown: N-terminal His tag (His6)
T2 sequence 1: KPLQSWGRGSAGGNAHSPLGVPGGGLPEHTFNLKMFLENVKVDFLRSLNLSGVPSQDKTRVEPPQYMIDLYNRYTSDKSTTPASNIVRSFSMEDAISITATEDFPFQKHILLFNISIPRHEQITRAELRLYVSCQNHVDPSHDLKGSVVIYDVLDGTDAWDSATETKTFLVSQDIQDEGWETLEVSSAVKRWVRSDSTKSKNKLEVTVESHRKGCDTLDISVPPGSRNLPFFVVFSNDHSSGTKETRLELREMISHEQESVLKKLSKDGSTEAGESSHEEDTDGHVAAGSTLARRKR
T2 sequence 2: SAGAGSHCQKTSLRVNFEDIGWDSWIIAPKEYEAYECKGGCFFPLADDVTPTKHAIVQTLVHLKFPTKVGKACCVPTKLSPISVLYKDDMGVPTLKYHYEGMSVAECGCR

[4] = molecular target: T3, human mature dimer BMP10 recombinant protein (R&D Systems, Cat#2926-BP) (human, UniProt O95393 317-424); test: solid-phase antigen ELISA, biotin-labeled antibody on immobilized BMP10
T3 construct: Bought protein; also called human BMP10
T3 sequence: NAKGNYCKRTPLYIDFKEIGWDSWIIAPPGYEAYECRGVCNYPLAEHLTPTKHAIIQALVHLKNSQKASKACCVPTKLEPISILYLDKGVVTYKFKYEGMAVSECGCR

[5] = molecular target: T4, human BMP9/10 chimeric protein C (human, UniProt Q9UK05 23-319; Q9UK05 320-429); test: solid-phase antigen ELISA, recombinant 3C7-3-1 antibody 1000 ng/mL on immobilized antigen (3 ug/mL)
T4 construct: also called BMP9/10 chimeric recombinant protein C; pLN1V5_hBMP9/10C product; not shown: His6 tag
T4 chain 1: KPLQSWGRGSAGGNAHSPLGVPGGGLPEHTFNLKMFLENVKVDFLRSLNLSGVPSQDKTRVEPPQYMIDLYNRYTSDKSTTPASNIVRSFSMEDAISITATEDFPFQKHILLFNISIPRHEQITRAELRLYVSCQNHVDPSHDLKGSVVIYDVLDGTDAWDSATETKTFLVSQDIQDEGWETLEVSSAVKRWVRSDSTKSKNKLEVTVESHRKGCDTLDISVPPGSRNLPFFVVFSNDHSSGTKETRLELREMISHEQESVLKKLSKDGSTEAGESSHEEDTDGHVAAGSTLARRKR
T4 chain 2: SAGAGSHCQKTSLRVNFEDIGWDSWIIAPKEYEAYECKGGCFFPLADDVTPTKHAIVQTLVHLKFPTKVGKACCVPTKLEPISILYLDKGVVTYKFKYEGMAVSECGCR

[6] = molecular target: T2, human BMP9 recombinant protein …; test: SPR (BIAcore 2000), antibody captured by anti-mouse IgG on CM5, human BMP9 as analyte, single cycle kinetics
[7] = molecular target: T1, human mature dimer BMP9 recombinant …; test: solid-phase antigen ELISA, biotin-labeled antibody 100 ng/mL on immobilized BMP9

Molecule | Kd [1] [nM] | BMP9-dependent ALK1-derived signal inhibitory activity (luciferase, human ALK1 reporter cells ALK1/p(GCCG)12-Luc/HepG2(38.5), 10 ng/mL BMP9) [2] | binding activity, fold of the R&D antibody [3] [fold] | binding result [4] | binding result [5] | Kd [6] [nM] | binding result [7]
R&D antibody (anti-human BMP9 mouse monoclonal antibody, R&D Systems, clone No. 360107) | 0.616 | – | – | – | – | – | –
3C7-3-1 antibody (antibody, V domains shown, Mouse IgG1, kappa; also called recombinant 3C7-3-1 antibody (mouse IgG1, kappa)) VH: EVQLQQSGPELVKPGASVKISCKASGNSFTGYYMNWMKQSPEKSLEWIGEINPSTGATTYNQKFKAKATLTVDKSSSTAYMQLKSLTSEDFAVYYCTRRAAYYFDYWGQGTTLTVSS VL: QIVLTQSPALMSASPGEKVTMTCSASSSVNYMYWYQQKPRSSPKPWIYLTSNLASGVPARFSGSGSGTSYSLTISSMEAEDAATYYCQQWSSNPRTFGGGTKLEIK | – | ~0.0625 fold of the R&D antibody | 23.3 | no binding (tested: 100 ng/mL antibody) | binds | 0.0264 | –
3B7-3-3 antibody (antibody, V domains shown, Mouse monoclonal antibody from a hybridoma (BMP9 KO mouse); also called anti-human BMP9 monoclonal antibody 3B7-3-3) VH: EVQLQQSRPELVKPGASVKISCKASDYSFTDYYMNWVKQSPDKSLEWIGEISPSSGGTTYNQKFKAKATLTVDKSSSTAYMQLKSLTSEDSAVYYCATRGAFYFDYWGQGTALTVSS VL: QIVLTQSPALMSAFPGEKVTMTCSASSSVSYMYWYQQKPRSSPKPWIYLTSNLASGVPTRFSGSGSGTSYSLTISSMEAEDAATYFCQQWSSNPRTFGGGTKLEIK | – | – | – | no binding (tested: 100 ng/mL antibody) | – | – | binds
